B1: ACAP3 (peptide)
chain: LGRTGQVCLFLKRGADQHALDQEQRD
B2: TLR5 (peptide)
chain: PEDLQDVGWFLHKLSQQILKKEKEKK
B3: MAGEB2 (peptide)
chain: IKKSVTKGEMLKIVGKRFREHFPEIL
B4: ACN9 (peptide)
chain: LQLHRVLPPDLKSLGDQYVKDEFRRH
B5: CASP5 (peptide)
chain: DNHKKKTVKMLEYLGKDVLHGVFNYL
B6: SLC19A1 (peptide)
chain: ACGDSVLARMLRELGDSLRRPQLRLW
B7: BCAR1 (peptide)
chain: SKFVILSAHKLVFIGDTLSRQAKAAD
B8: FOXJ2 (peptide)
chain: PAKKMTLSEIYRWICDNFPYYKNAGI
B9: CASP3 (peptide)
chain: SWFIQSLCAMLKQYADKLEFMHILTR
B10: VCAM1 (peptide)
chain: KIETTPESRYLAQIGDSVSLTCSTTG
B11: c6orf222 (peptide)
chain: DAIIQMIVELLKRVGDQWEEEQSLAS

The binders below were run against Bcl-2, P10415 (assay: peptide SPOT array, c-Myc-tagged receptor at 1 uM or 100 nM, anti-c-Myc-Cy3).

| Binder | SPOT signal as a fraction of Bim BH3's signal on the same receptor and array |
| --- | --- |
| B1 | 0.06 |
| B2 | 0.07 |
| B3 | 0.15 |
| B4 | 0.05 |
| B5 | 0.05 |

What follows are binders tested against Bcl-xL, Q07817 in the same assay as above.
Bcl-xL, Q07817, sequence (Q07817 1-209): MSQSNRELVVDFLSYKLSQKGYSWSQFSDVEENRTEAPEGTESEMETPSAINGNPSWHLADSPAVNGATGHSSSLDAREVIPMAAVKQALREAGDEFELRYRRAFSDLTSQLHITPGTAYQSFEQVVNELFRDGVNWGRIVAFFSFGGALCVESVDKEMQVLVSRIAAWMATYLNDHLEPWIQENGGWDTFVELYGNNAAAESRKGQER

| Binder | SPOT signal as a fraction of Bim BH3's signal on the same receptor and array |
| --- | --- |
| B6 | 1.21 |
| B7 | 0.1 |
| B1 | 0.41 |
| B2 | 0.1 |
| B8 | 2.03 |
| B3 | 0.52 |
| B4 | 0.28 |
| B5 | 0.28 |

Target: T1, Bcl-w, Q92843
T1 chain: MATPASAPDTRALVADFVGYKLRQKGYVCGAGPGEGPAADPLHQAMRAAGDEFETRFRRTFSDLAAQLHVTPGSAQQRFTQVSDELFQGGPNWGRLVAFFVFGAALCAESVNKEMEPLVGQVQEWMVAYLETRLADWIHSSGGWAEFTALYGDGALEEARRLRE
Experiment: as above

| Binder | SPOT signal as a fraction of Bim BH3's signal on the same receptor and array |
| --- | --- |
| B1 | 0.11 |
| B2 | 0.3 |
| B3 | 0.59 |
| B4 | 0.14 |
| B5 | 0.21 |

Target: T2, Mcl-1, Q07820
T2 chain: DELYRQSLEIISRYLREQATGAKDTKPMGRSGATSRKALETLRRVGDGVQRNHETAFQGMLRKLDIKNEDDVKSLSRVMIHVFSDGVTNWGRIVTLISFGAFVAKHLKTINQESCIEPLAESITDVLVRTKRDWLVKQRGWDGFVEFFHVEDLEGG
Experiment: as above

| Binder | SPOT signal as a fraction of Bim BH3's signal on the same receptor and array |
| --- | --- |
| B6 | 0.45 |
| B7 | 0.06 |
| B1 | 0.08 |
| B2 | 0.3 |
| B8 | 0.47 |
| B3 | 0.27 |
| B4 | 0.1 |
| B5 | 0.11 |

Target: T3, Bfl-1, Q16548
T3 chain: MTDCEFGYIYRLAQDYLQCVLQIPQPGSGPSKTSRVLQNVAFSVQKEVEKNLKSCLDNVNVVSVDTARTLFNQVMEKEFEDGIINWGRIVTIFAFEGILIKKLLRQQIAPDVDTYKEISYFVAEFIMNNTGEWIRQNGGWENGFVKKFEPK
Experiment: as above

| Binder | SPOT signal as a fraction of Bim BH3's signal on the same receptor and array |
| --- | --- |
| B9 | 0.25 |
| B6 | 0.38 |
| B1 | 0.16 |
| B2 | 0.25 |
| B8 | 0.54 |
| B3 | 0.45 |
| B10 | 0.03 |
| B4 | 0.15 |
| B5 | 0.19 |

These binders were tested against Bcl-xL, Q07817 (assay: fluorescence polarisation, direct titration of receptor into 10 nM labelled peptide).

| Binder | Kd [nM] |
| --- | --- |
| B6 | 1460 |
| B7 | 2540 |
| B8 | 103 |

Target: T1, Bcl-w, Q92843
Experiment: as above

| Binder | Kd [nM] |
| --- | --- |
| B9 | 64 |
| B7 | 3610 |
| B11 | 13 |
| B8 | 85 |
| B10 | > 4350 |

Target: T4, Bcl-2, P10415
T4 chain: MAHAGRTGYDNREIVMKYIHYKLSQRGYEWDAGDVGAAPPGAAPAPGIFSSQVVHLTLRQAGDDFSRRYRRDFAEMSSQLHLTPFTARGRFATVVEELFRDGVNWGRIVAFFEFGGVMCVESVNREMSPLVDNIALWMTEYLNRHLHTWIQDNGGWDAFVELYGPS
Experiment: as above

| Binder | Kd [nM] |
| --- | --- |
| B9 | 264 |
| B6 | 237 |
| B7 | 2990 |
| B11 | 0.3 |
| B8 | 130 |
| B10 | > 3040 |

Target: T2, Mcl-1, Q07820
Experiment: as above

| Binder | Kd [nM] |
| --- | --- |
| B6 | 22 |
| B7 | 912 |
| B11 | 23 |
| B8 | > 10000 |

Target: T3, Bfl-1, Q16548
Experiment: as above

| Binder | Kd [nM] |
| --- | --- |
| B9 | 43 |
| B6 | 182 |
| B7 | 4680 |
| B11 | 1 |
| B8 | > 3370 |
| B10 | > 3370 |
